Laboratory results as given in article PMC4650670 (Scientific Reports, 2015).

Target: human cytoskeletal actin, filamentous (F-actin; β- and γ-actins) (human, UniProt P60709 1-375; P63261 1-375)
Test: ITC
Conditions: both partners purified

B1: VopV_(rep1) (residues 361-428 of the type III secretion effector VopV) (domain or fragment)
chain: WPEVKPAHRLITTSGNAKIDGNPGYRNARVDVDGQTVGYTRNERGGSQPQSSGVHTLQGSQQPSVEPS
  Kd: 54.4 nM
